*: point of attachment. Benzoyl(4-F) = O=C(c1ccc(F)cc1)*
Legend:
[1] = target: T1, αvβ6 integrin (purified) (UniProt P06756 31-992; P18564 22-707); assay: ELISA, αvβ6 integrin
T1 construct: Purified integrin captured on plate by anti-αv antibody P2W7; also called purified integrin

[2] = target: αvβ1 integrin (purified) (UniProt P06756 31-992; P05556 21-728); assay: competitive binding ELISA, purified integrin; competitor biotinylated natural ligand
Protocol: (§1) Anti-αᵥ capture antibody P2W7 (5 μg/mL, Novus Biologicals) was coated onto Nunc MaxiSorp 96-well plates, followed by blocking with BSA overnight at 4° C. All wells were washed 3 times with PBS, followed by plating of purified integrin (3 μg/mL) and incubating at room temperature in a humid chamber for 1 hour. Peptide solutions, titrated (1 μM-1 pM for integrin and 100 μM-100 pM for αᵥβ₃ integrin) and mixed with biotinylated natural ligand, were added to the integrin-coated wells in triplicate. After incubating for an hour at room temperature, the plate was washed 3 times with wash buffer. Captured biotinylated natural ligand was detected with ExtrAvidin-HRP and developed with TMB substrate. Half-maximal inhibitory concentration (IC₅₀) of peptides was determined fitting to sigmoidal dose-response model in GraphPad Prism 6.0 (FIG. 5A). Results are shown in FIG. 5B and below in Table 2.

[3] = target: αvβ8 integrin (purified) (UniProt P06756 31-992; P26012 43-684); assay: as above
Protocol: as §1

[4] = target: αvβ3 integrin (purified) (UniProt P06756 31-992; P05106 27-718); assay: as above
Protocol: as §1

[5] = target: T1, αvβ6 integrin (purified); assay: as above
Protocol: as §1

Chain of αvβ8 integrin (purified) (P06756 31-992, chain 1 of 2): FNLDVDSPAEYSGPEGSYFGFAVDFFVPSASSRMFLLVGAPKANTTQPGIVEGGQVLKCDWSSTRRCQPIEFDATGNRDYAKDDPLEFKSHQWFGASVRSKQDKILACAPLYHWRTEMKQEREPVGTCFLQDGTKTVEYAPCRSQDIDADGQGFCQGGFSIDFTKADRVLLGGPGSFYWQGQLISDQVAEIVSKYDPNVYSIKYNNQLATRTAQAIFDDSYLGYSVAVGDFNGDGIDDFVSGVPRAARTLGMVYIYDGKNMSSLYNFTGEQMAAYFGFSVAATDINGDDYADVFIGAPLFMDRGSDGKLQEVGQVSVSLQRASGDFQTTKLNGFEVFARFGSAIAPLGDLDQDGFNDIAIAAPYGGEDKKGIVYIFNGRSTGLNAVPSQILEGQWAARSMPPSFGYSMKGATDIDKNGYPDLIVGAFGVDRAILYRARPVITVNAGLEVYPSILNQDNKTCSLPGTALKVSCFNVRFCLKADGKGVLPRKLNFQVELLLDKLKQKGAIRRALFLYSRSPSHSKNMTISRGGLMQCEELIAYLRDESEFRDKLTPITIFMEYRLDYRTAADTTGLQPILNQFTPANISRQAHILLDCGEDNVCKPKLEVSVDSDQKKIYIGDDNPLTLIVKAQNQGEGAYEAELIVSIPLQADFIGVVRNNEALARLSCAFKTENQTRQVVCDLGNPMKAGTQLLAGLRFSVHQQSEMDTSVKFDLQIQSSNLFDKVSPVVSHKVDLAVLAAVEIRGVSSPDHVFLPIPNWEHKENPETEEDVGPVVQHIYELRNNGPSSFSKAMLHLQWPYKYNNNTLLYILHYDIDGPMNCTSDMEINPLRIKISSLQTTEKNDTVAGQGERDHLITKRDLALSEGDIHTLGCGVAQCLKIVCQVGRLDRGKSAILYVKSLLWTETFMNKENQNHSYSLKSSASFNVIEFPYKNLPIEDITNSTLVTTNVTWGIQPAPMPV
Chain of αvβ8 integrin (purified) (P26012 43-684, chain 2 of 2): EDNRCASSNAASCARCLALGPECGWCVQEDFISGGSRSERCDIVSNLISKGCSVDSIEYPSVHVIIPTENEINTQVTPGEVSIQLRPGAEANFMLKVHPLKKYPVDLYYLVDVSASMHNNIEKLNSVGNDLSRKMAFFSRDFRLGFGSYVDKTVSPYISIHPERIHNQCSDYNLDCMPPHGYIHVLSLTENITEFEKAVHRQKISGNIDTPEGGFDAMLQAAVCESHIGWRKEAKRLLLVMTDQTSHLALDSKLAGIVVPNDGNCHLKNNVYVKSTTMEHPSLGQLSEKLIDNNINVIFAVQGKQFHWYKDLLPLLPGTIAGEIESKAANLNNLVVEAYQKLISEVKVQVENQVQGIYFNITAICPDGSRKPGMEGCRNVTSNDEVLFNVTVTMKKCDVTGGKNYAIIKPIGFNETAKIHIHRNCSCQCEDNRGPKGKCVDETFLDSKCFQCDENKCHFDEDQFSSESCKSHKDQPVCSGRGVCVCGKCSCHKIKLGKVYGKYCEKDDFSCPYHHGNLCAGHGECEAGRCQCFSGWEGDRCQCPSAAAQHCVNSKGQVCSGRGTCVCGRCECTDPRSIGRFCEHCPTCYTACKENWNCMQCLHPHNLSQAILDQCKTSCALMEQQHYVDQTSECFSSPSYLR
T1 sequence (P06756 31-992, chain 1 of 2): as the sequence (P06756 31-992, chain 1 of 2) above
T1 sequence (P18564 22-707, chain 2 of 2): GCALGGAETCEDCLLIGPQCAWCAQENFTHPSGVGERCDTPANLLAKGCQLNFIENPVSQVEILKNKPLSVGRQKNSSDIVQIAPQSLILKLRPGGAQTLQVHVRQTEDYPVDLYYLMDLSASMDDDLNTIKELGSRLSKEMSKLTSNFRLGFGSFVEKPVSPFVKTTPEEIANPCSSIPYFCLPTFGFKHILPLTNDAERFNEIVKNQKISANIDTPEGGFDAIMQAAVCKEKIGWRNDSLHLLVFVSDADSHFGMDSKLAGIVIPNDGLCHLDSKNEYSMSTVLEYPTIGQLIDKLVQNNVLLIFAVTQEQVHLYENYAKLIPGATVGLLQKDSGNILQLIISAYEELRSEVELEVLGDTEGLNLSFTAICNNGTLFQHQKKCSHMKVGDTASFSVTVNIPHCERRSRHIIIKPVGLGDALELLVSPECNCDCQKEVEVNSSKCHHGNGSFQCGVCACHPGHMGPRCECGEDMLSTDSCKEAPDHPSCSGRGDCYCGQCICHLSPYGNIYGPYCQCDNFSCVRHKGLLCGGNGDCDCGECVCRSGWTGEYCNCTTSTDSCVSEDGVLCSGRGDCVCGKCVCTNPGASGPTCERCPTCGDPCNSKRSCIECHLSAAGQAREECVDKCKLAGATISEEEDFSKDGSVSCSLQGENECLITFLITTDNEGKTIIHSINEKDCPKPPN
Chain of αvβ3 integrin (purified) (P06756 31-992, chain 1 of 2): as the sequence (P06756 31-992, chain 1 of 2) above
Chain of αvβ3 integrin (purified) (P05106 27-718, chain 2 of 2): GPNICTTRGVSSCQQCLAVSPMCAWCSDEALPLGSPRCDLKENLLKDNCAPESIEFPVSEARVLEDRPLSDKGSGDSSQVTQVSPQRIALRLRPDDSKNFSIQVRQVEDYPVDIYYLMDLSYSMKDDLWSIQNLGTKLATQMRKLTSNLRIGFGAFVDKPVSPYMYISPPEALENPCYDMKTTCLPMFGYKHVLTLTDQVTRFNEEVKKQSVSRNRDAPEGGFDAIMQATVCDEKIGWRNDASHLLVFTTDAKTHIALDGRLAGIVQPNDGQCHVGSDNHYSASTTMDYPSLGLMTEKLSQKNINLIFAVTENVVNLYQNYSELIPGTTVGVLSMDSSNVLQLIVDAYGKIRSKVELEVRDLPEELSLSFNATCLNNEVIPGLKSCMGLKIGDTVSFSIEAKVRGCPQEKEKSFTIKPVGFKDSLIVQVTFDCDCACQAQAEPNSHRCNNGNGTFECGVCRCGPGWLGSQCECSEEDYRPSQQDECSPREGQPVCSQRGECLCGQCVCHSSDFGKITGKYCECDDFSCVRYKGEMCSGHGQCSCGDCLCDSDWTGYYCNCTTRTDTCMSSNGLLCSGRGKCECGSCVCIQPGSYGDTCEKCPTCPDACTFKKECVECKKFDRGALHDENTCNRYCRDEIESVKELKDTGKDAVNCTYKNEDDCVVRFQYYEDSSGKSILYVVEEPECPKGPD
Chain of αvβ1 integrin (purified) (P06756 31-992, chain 1 of 2): as the sequence (P06756 31-992, chain 1 of 2) above
Chain of αvβ1 integrin (purified) (P05556 21-728, chain 2 of 2): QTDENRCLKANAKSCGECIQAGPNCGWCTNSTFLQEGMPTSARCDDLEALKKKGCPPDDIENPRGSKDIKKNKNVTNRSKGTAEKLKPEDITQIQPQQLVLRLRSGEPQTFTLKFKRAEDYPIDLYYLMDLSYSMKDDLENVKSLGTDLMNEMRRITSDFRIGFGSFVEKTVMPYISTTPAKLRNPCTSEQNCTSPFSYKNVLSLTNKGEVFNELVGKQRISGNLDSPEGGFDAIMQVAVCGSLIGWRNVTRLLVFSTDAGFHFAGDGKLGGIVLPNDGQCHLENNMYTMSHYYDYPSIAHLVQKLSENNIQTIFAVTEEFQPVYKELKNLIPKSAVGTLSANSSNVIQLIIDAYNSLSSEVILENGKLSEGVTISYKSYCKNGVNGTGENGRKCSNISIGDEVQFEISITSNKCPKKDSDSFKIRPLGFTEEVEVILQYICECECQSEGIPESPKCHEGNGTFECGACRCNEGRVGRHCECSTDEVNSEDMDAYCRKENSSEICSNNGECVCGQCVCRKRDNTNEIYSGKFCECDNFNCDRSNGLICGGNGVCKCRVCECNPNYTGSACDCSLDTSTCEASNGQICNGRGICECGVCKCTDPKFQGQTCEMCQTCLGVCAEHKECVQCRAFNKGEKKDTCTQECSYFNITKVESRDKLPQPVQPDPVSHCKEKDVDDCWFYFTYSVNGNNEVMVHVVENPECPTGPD

B1: FB-…(Ac)-PEG28 (peptide)
peptide: XGDLTYLKXX
modifications: N-terminal fluorobenzoyl (FB); acetyl (Ac) on the side chain of the C-terminal lysine; PEG28 attached to the C-terminal lysine
notes: N-fluorobenzoylated, C-PEGylated variant of ST1-62
With B1 the IC50 [1] was 15.5 nM.

B2: Ac-…(FB) (peptide)
peptide: XGDLTYLKX
modifications: N-terminal acetyl (Ac); fluorobenzoyl (FB) on the side chain of the C-terminal lysine
notes: N-acetylated variant of ST1-62
B2 gave an IC50 [1] of 1600 nM.

B3: FB-…(Ac) (peptide)
peptide: XGDLTYLKX
modifications: N-terminal fluorobenzoyl (FB); acetyl (Ac) on the side chain of the C-terminal lysine
notes: N-fluorobenzoylated variant of ST1-62
For B3, the IC50 [1] was 4.3 nM.

B4: ST1-60, …(FB) (peptide)
peptide: H-RGDLADLRK(Benzoyl(4-F))-NH2
notes: free N-terminus; also called Peptide 3
B4 gave an IC50 [2] of 600 nM, an IC50 [3] of 160 nM and an IC50 [4] of 500 nM. For the same binder, the IC50 [5] was 4.7 nM.

B5: FB-…(FB) (peptide)
peptide: XGDLTYLKX
modifications: N-terminal fluorobenzoyl (FB); fluorobenzoyl (FB) on the side chain of the C-terminal lysine
notes: as for B3
With B5 the IC50 [1] was 21.9 nM.

B6: Me-…(FB) (peptide)
peptide: XGDLTYLKX
modifications: N-terminal methyl (Me); fluorobenzoyl (FB) on the side chain of the C-terminal lysine
notes: N-methylated variant of ST1-62
B6 showed an IC50 [1] of 500 nM.

B7: ST1-59, …(FB) (peptide)
peptide: H-RGDLMKLAK(Benzoyl(4-F))-NH2
SMILES: CSCC[C@H](NC(=O)[C@H](CC(C)C)NC(=O)[C@H](CC(=O)O)NC(=O)CNC(=O)[C@@H](N)CCCNC(=N)N)C(=O)N[C@@H](CCCCN)C(=O)N[C@@H](CC(C)C)C(=O)N[C@@H](C)C(=O)N[C@@H](CCCCNC(=O)c1ccc(F)cc1)C(N)=O
notes: free N-terminus; also called Peptide 2
B7 gave an IC50 [2] of 900 nM, an IC50 [3] of 2590 nM and an IC50 [4] of 2200 nM. It also gave an IC50 [5] of 2.7 nM.

B8: FB-…(FB)-PEG28 (peptide)
peptide: XGDLTYLKXX
modifications: N-terminal fluorobenzoyl (FB); fluorobenzoyl (FB) on the side chain of the C-terminal lysine; PEG28 attached to the C-terminal lysine
notes: also called ST1-92
With B8 the IC50 [1] was 17.6 nM.

B9: ST1-62, …(FB) (peptide)
peptide: H-VGDLTYLKK(4‑fluorobenzoyl)-NH2
notes: free N-terminus; also called Peptide 1
For B9, the IC50 [3] was 5300 nM and the IC50 [5] was 11 nM.

B10: ST1-61, …(FB) (peptide)
peptide: H-RGDLRELAK(Benzoyl(4-F))-NH2
SMILES: CC(C)C[C@H](NC(=O)[C@H](CCC(=O)O)NC(=O)[C@H](CCCNC(=N)N)NC(=O)[C@H](CC(C)C)NC(=O)[C@H](CC(=O)O)NC(=O)CNC(=O)[C@@H](N)CCCNC(=N)N)C(=O)N[C@@H](C)C(=O)N[C@@H](CCCCNC(=O)c1ccc(F)cc1)C(N)=O
notes: free N-terminus; also called Peptide 5
B10 showed an IC50 [2] of 2300 nM, an IC50 [3] of 2600 nM and an IC50 [4] of 300 nM. The IC50 [5] was 1.1 nM.
